Assay results: the domain aggregation screens of Martell et al. (2025)

Assay: soluble fraction after stress (log2 fold change); higher = more stays soluble; pooled small domains, quantitative proteomics
Conditions: stress: 75 degC
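Further: 20 min heating vs room temperature control held 20 min.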

| Sequence | soluble fraction (log2) |
| --- | --- |
| HMASLSEREHDVAVLILQGKTYAEIGQAIFISPRTVEHHVASIRRRLEAKSRSDLIAKLRLTIGGTED | -2.68 |
| HMASPTKQLVLEALRASGQPMSSMELSAQIGVSRATAQRYLSTLASAGEVKIQLRYGTTGRPEQEFLAIE | -1.64 |
| HMASQFSLIVTQADAGMRLDSLLAVSGAYPSRSAAVKQIEAGKVLVNGLARSKRSIVAPGDTIVYEEIP | -0.981 |
| HMASQVERGAVVVTDQRIFFIGVSSEGIEVHGTKIFGMSEKAPLYSHMKGLKKGDSFQFNGLKYVIQDIY | -3.57 |
| HMASRKTERINRLIDVLQHATSRVPASVLSKILGIGERSVRNYVSEVNEQGQFRIDSSSGGYRLVA | -0.492 |
| HMASRTLSYSEFMSRVDSGDVTSVTLDGERIIMRTSNNQEFLSIKPEGEDISERLLAKNIEVRAEAQQ | -0.321 |
| HMASVGTHIKRLRAAKRMTQEELAEQLHVTRQAVSAWETGKALPDVEMLERIAAALDADVTEVIYGA | -0.346 |
| HMATAATGIINNNYVNVRSGPATTYNIVGRLDQGSSIEILGSKNDWYQIKTKQLNGWVKNDFINLQK | -0.283 |
| HMATETELNLQLMRIIDELHTDHNTWGSRKITDYLRLQGYEINRKRIQRLMDVMDIQVVYPK | -2.07 |
| HMATEVEVPDVVGRQMALATQLLEARKLRVNVAEIYDEKTPPGQVVSQSPEAGSSVKEERVVTIYVSR | -0.154 |
| HMATGGKIYIGMNDNGKVVGVSDADKLLEDIPNKVRDVLGIIVDVNLLEENGLKYIEIDVPPYSN | -0.698 |
| HMATGIKAVDNVFGWMNLEQVAKTVGLDIPSVLRASGLPEDTPVDISIKKIPGVDDEELKDSLRQYIEKS | -0.107 |
| HMATGTVKWFNPNKGFGFIQQDDASKDVFVHSNELNGVYINEGDKVEFDVVETEKGLSAQNIKK | 0.222 |
| HMATHGRRAVIELREKIVSGELPGGTRLFEVSLAETLDISRTPVREALSRLAEEGLLDRLPNGGFVVRR | -1.18 |
| HMATIGVGSKVTLTTYVDWVGNGLLKTRDFYFVSELNGKRAVLRADSMNGAIYAAVNIDNLRI | -3.66 |
| HMATINGIEKYLSSGLIPGIGPHTAKKLVEKFGLDTLDIMQYNPDRLTEVEGIGDKKAAKISEAFQEQK | 0.00381 |
| HMATKVNSGVTVRDLAELLGLSSADLIKKLMTMGEMATLTQTLTDDSVKAIADEYDRKIEIVSAAQ | 0.536 |
| HMATLTPLGRLQLARYHAQERATLAATAERFQVSTTTVRRWVGRYHQVVAAGGRPTTADMQDRPSRP | -2.07 |
| HMATMSIDERILEIRSRAGLTQQEMADRLFVTRQAVSRWERGETVPGIDTLRLIAEAFDVRVDQILEL | -1.66 |
| HMATQMSSARRGIATDEMKQVAKDEDVTLDWLLPKIAIGSIIIPSNNVRPQKIHNVGIGKGMKTKVN | 0.195 |
| HMATTTEPTSPPAATASLEAKINWLFLIFRNKKTVTASEQKFHAEDASTVVGKETLTDDGTTMTKGETAAG | -0.0674 |
| HMATVELELKPEELRAGMILTKDLISGTGMMLLNKGVTLDNVKVEAIQRYYQLDPPLHGVFALVHGK | -1.32 |
| HMATVGENIRRYRKAQNLSAAKLAEKVGLTQGAILHYERGIRTPGISQLEKIAHALNVSPRM | -0.144 |
| HMATVPNVVGLSEEKAKSRLANNGLNVSVTTEEVSDKSKDGIVSSQTSEGDTVKQGATITITVGKYVEK | 0.111 |
| HMATYDIDALKVDLPSAKELAQFVYDKTDGLVSLDLIGKPKEEQYIVAKNALEGKKVPAEYLTGFNPY | 0.702 |
| HMATYTPYDKQGAKLWRVTAYLGMDSVTGKQRNMKKGGFKTKKEAQLYYNQVKLDFENGTLDQ | -1.36 |

| Sequence | soluble fraction (log2) |
| --- | --- |
| HMAVEQLKSQIGGFLKANREQSFSAQNMADGLRMNSAAGYQDVVNAMNALVRDGEAVEKDGQFSYNVN | 0.116 |
| HMAVETYRVKKSDTMQTIADRFGLSVEELLEYNQAYKTRELRARDILIIPSRKERKKLQQQKAQAAAQVVQ | -0.632 |
| HMAVGTASNLIGKDIEAYAPIDGSQSSDDTKTISGKVESVHIKDGVVYMNVKDSQSENIIEVEYGALIKVN | 0.251 |
| HMAVKPIDRLRSLMAESNVTDAELQKVVADKGHYAADAPIDSYSEKFISGWLIKYWSQILNLINADRTVL | -0.691 |
| HMAVKTEHGRIWKALPEGQDGYREDVPMFTSKSMYDGSAGIGIFLIRLYEATSDERWLKEAEEAAAHII | 0.157 |
| HMAVLEGPAGKLGIVRFEANRSFTGMGHERFSSADQAFGTKPAAVVASRLFATGQVAGVHVYGNIITVELA | 0.632 |
| HMAVNDPDEKFIELGIPADWVQVVRKAGFQTVEALKTVENPNKLHQELSGLNKKMKLGLKTLSQDEVKDWF | 0.0688 |
| HMAVPMTPGELVGSRVRVLWWKDGRGEVVALARGHQATLPARSEEPLRTGADAVVLEADEGTLVVTS | -0.13 |
| HMAVSGRMMVYEYIRQQMREGSLLPGSVLDLPAISHKLGISNTPLRDSLIRLEAEGYLTIYPRSKVVIN | -3.03 |
| HMAVTGRVDLRIKPWGYVSVDGAAKVSSPPTMQLKLAPGRHEIEITNPAGAAVTKTVDVIAGKSVTVQHN | -0.0874 |
| HMAVTKVKVITESSNLNIRKGPGTDQPIVGKAAHHEIITLVNKSNDQWWLVRTNDGEEGYSYSRYLEPVT | -0.667 |
| HMAVVEVATTTATEYKVEKGHHFKVGDFVMFKTGAKSYAITAIDTTSPIFDKITVGTTLGEAIPVGGTLM | -1.62 |
| HMAVVIPDVKGMTIEEAAPFLAEKGIRYNIIDSVFSKDVDPGAIVEIVPTPGSKVKEGRIVFVTINAK | -0.774 |
| HMAVVQMVDRPGGLDELLKDVVRAGVNFANAYGRTASDGNSAFFVIDIQDIPGARQKLADVGLQILADEAV | -0.383 |
| HMAWAVDVGVVGLFPGKAVLVIDGGAPRTVPVGANVGGVRLLAVDQGSATVEIGGKRQRLAIGQHAH | -1.69 |
| HMAWIGEHTVTSEDTLSHIALKFYGHATPPYYKLIYEANKAIIGDNMNIIVPGQVLRIPALPEEL | -1.35 |
| HMAYLTVPAVIAKDTKKSIQLLESKGFEVVIQDSIYTDTLARGTVIKQLPDPNATVKINRTVYLTVNRYTP | -2.41 |
| HMAYQQITIKANVVNVRQGPGLSYDVMSQANKGETMNVISQKNNWYQVRLSGDKIGWVASWLVDNT | -3.08 |
| HMAYWVVKNNQVSLQINRSNYQITSTARALSNGNLGDEIDVKVLQSGVIKKAVVIGKGQVELLR | -3.24 |
| HMDAHIGTLTPRERETLHHLAIGHSNKVIAKKLNLAESTVKAYVQSILRKLGLSSRVQAAVYAIQHDIR | -0.702 |
| HMDAIDPKTVTSWADLWKPEYKSSLLLTDDAREVFQMALRKLGYSGNTTDPKEIEAAYNELKKLMPNVAAF | -0.193 |
| HMDAIDQDGNHMTFKRWGEQLQEAFQALEAYDTDKAKTILNELIKFPIDSDLNNALKGILSNIDEMMA | -0.914 |
| HMDAINITTYKGQITLTGTKTGTLVGIYNTAGMLVKSMMSKGEKLYFDNLPSGVYIIKVGEEEPRKVQVI | -2.16 |
| HMDAKIEYTMSDLIENRLINSDDASMRREKLSEILKIGYGNGKKTLHKLNSFGITREEFEEAMKEVNSH | 0.0731 |
| HMDAKIKDYADAYAKMDPQQAASLFNNMTTGSLDLVAKILENIPANKRAAILEKMDVNAAAQVTEKMR | -0.0156 |
| HMDAKSRFQEWVQAETGITPTYRIIGDSGPDHAKTFIAQVLLGERVVGEGVGSSKRAAEQAAAQAALAAM | -0.0803 |

| Sequence | soluble fraction (log2) |
| --- | --- |
| HMDAMMQRLERLKELASSADGSKDYLILGPLRRDLAKLMALEDPKLRQGAEELDRKILAILS | -0.477 |
| HMDAPHPSVVQVYFESRDRSWTYYNDRFDLHEGDLVYVEGKLEGVRGRVVEVSYNFRIKLADYKRVIAVA | -3.29 |
| HMDASSAVQFGSLLRDARRRQGLSQAELGGDKYSGSYISHLESGRRVATPEVIEFLSRRLGVSPLEWGVS | -0.0146 |
| HMDASSTGFLGKHVQIVGLVSQPHLNGRRGVASRFDSNRRRYLVRLDEIDGHAEVVAFRPDNLVLSNLL | -0.627 |
| HMDASVTIEQVERMVQANVSDDVIISQLQGRGAAQNLSTDDIINLTQKGISAEVIKAYQSAG | 0.111 |
| HMDAVLMEYDRLLALELTEDPDVYQDLLDKVREQSLGADGRVTDKYREKFDAVATRFDDYEDNYQW | -0.113 |
| HMDAVQAGKRVLIVDDLIATGGTAKAATDLIEKAGGTVVGFSFVMRLDGLDGLDKLDGKPSSSLIAMP | 0.193 |
| HMDAYMGEAKDEETFAEEYLNDSGLLNEIPESVARYFDIVAYARDLLIGDFSLHDGHVFNMT | 0.358 |
| HMDDAFLNKEMLKQALENLNEREKKLIYLRFYEGLTQKEIADRLSLSQMHVSRLLNESLNKLRRKI | -0.44 |
| HMDDATDLPYQEFRTQVSDGQVKIAQFNNNTGKITFESISGDKFKTSGPLELSSDDERLFLENIEDFKFFT | 0.0939 |
| HMDDATDVPYQEFRTQVTSGQVEIAQFNNNTGKISFQSTSGEKFETSGPLELSSDDERLFLENIEDFKFFT | 0.416 |
| HMDDATIKVNIAAKFLNAGNNLFVDIDTTVLEGRVLLTGLVDTQEVRIDAVRLVWEVEGIREVINEIEIG | -5.19 |
| HMDDATTQLADRLLDLRRKAGYSQEQLADLLGVSRQAISKWEGAQGRPEVDNVVKLAQIYRVSTDFILTGS | -0.698 |
| HMDDAVSHPDAGHIVTVTKVSADGTAEVMYRGASWRAKTADGSPLTAGSARIVRVDGAALVVEP | 0.0931 |
| HMDDDDPDQEIAQYYEKLRAMNPDEETKQKLSDEINKLSKMMYSSQEAMVSRNYLDTVFSLPWHQF | -0.146 |
| HMDDEELDALKGIPANEYTQEQIKQISEVFHTLQKNEVKDWLNSLQLRNIELPFELRNEVFSQ | 0.211 |
| HMDDFPLKRGSKGNRVTLLQNALVKKYGAGILPKYGVDGMFGKEVEAALVHAKIPTTINEANYTKIV | -0.0514 |
| HMDDFSETLLQYIKEKGGHISLNDKTDAGVIYETFGVSKKTFKKAVGDLYKKRLIVLEDTGIRL | -0.501 |
| HMDDHLSFLAARLPDGASFDTDFDALGIDSFGMIALRAEVEERLGEQIADSDWTKVERPSEILAMLERK | -0.204 |
| HMDDLATAYKAMGVDASISDKDLKRAYRKLMSQHHPDKMIAKGVPADMVAMATEKTQEIQAAYDLIERSR | 0.203 |
| HMDDLIIQIELKQEGLEITGLKVLLKEDSVIDEQVKQTIRRKIERFLVNLYGNPNVYVSKFSMGI | -0.296 |
| HMDDLTTASIKQQLKALIDEENKNKPLSDQKLTDALKAQGIDISRRTVAKYREAMNIPGSSKRKRF | -0.0771 |
| HMDDMVLEIGPGIGTMTQYLAEAAGKVVAVEIDRNLLPILQETLADYDNVKVIHADVLSLDLEKLVQEE | -0.0859 |
| HMDDPDALITDSQLKAIHVLLGKLKIDDNLKHAYIADVLQLKDIPETLKTLTKHQGSTIIERLNLLIKDA | -0.0192 |
